Test results as given in article PMC10657410.

Biological target: GST-ApCaV2a1 C-terminal fragment 1 with the putative RxLPxxP site removed (Aplysia californica)
Experiment: pull-down; GST protein on glutathione beads rotated with His-tag protein eluate overnight at 4 °C; washed 4 x 10 min with PBS; eluted by boiling; SDS-PAGE, Ponceau stain and blot with anti-His antibody

His-SH3-3 domain of Aplysia RIM-binding protein (ApRBP) (domain or fragment)
percent of binding remaining: 26%
